# Assay results from patent US20130034585A1 (BOARD OF SUPERVISORS OF LOUISIANA STATE UNIVERSITY AND …, published 2013).
# Target: bovine TAP1 (bovine)
# Assay: cell-based or functional assay
Binder,MHC-I surface expression on infected MDBK cells (FACS) [%],MHC-I surface expression relative to BHV-1 wt-infected MDBK cells [fold],"inhibition of TAP-mediated peptide transport in infected MDBK cells at 8 hpi (FITC peptide, FACS) [%]",peptide transport at 8 hpi relative to BHV-1 wt-infected MDBK cells [fold]
BHV-1 UL49.5 30AAA32 CT-null (other) DPLLDAMAAAGAMDFWSAGCYARGVPLSEPPQALVVFYVALTAVMVAVALYAYGLCF,89.1,2.5,10,~6
BHV-1 UL49.5 CT-null (other) DPLLDAMRREGAMDFWSAGCYARGVPLSEPPQALVVFYVALTAVMVAVALYAYGLCF,49.6,1.3,63,2.5
BHV-1 UL49.5Δ30-32 (other) DPLLDAMGAMDFWSAGCYARGVPLSEPPQALVVFYVALTAVMVAVALYAYGLCFRLMGASGPNKKESRGRG,74.3,2,23,4
BHV-1 wt UL49.5 (glycoprotein N) (other) DPLLDAMRREGAMDFWSAGCYARGVPLSEPPQALVVFYVALTAVMVAVALYAYGLCFRLMGASGPNKKESRGRG,36.2,,84,
BHV-1 UL49.5 30AAA32 (other) DPLLDAMAAAGAMDFWSAGCYARGVPLSEPPQALVVFYVALTAVMVAVALYAYGLCFRLMGASGPNKKESRGRG,75,2,27,4
BHV-1 UL49.5Δ30-32 CT-null (other) DPLLDAMGAMDFWSAGCYARGVPLSEPPQALVVFYVALTAVMVAVALYAYGLCF,88.6,2.5,7,~6
